Results from patent US20260209347A1 (BIORAY PHARMACEUTICAL, published 2026).
Changes are numbered by the printed parent chain. Read-outs that look alike come from different tables or passages of the source.

B1: NKG2A positive control antibody Z270 (Monalizumab) (antibody, INN chains, looked up, V domains shown)
VH: QVQLVQSGAEVKKPGASVKVSCKASGYTFTSYWMNWVRQAPGQGLEWMGRIDPYDSETHYAQKLQGRVTMTTDTSTSTAYMELRSLRSDDTAVYYCARGGYDFDVGTLYWFFDVWGQGTTVTVSS
VL: DIQMTQSPSSLSASVGDRVTITCRASENIYSYLAWYQQKPGKAPKLLIYNAKTLAEGVPSRFSGSGSGTDFTLTISSLQPEDFATYYCQHHYGTPRTFGGGTKVEIK
B2: hu-43VH-21/VL-11 (antibody, human IgG4 S228P, kappa, V domains shown)
VH: QVQLVQSGAEVKKPGASVKVSCKASGFNIQNTYIHWVRQAPGQGLEWMGRIDPASGSTEYAPKFQGRVTMTADTSINTGYMELSRLRSDDTAVYYCARYGNFLYYYSMDYWGQGTLVTVSS
VL: DIVMTQSPLSLPVTPGEPASISCRSNKSLLHSNGNTYLYWFLQKPGQSPQLLIYRMSNLASGVPDRFSGSGSGTDFTLKISRVEAEDVGVYYCMQHLENPYTFGQGTKLEIKR
B3: cAb-43 (antibody, human IgG4 S228P, kappa, V domains shown)
VH: EVQLQQSVAELVRPGASVKLSCTASGFNIQNTYIHWVKQRPEQGLEWIGRIDPASGSTEYAPKFQGKATITADTSSNSGYLQLSSLTSEDTAIYYCARYGNFLYYYSMDYWGQGTSVTVSA
VL: B2 VL with S7A, P8A, L9P, L11V, P18S, A19V, K44R, D75A, K79R, Q105G
notes: human-mouse chimeric antibody, human IgG4 constant region; also called antibody number 43; NKG2A chimeric antibody
B4: hu-43VH-11/VL-21 (antibody, human IgG4 S228P, kappa, V domains shown)
VH: B2 VH with I76T, R85S, D89E
VL: B2 VL with P15L, E17Q, L42Q, K44R, Q50R
B5: hu-43VH-11/VL-31 (antibody, human IgG4 S228P, kappa, V domains shown)
VH: B2 VH with I76T, R85S, D89E
VL: B2 VL with S7T, P12S, E17Q, S48P, K112R, R113T

How the values were obtained:
[1] = target: human NKG2A/CD94 on cells (CHOK1-hNKG2A/CD94) (human) (UniProt P26715); experiment: cell-based or functional assay
[2] = target: human NKG2A/CD94 on cells (CHOK1-hNKG2A/CD94) (human) (UniProt P26715); experiment: cell-based or functional assay; remark: listed apart in the source
[3] = target: human NKG2A/CD94 on cells (CHOK1-hNKG2A/CD94) (human) (UniProt P26715); experiment: FACS on human NKG2A overexpressing cell line
[4] = target: human NKG2A/CD94 on cells (CHOK1-hNKG2A/CD94) (human, UniProt P26715 1-233; Q13241 1-179); experiment: cell-based or functional assay
[5] = target: T1, human NKG2C/CD94 on cells (CHOK1-hNKG2C/CD94) (human, UniProt P26717 1-231; Q13241 1-179); experiment: FACS on CHOK1-hNKG2C/CD94 cells
T1 construct: whole, on cells; also called human NKG2C overexpressing cells; human NKG2C overexpressing cell line
Procedure: Human NKG2A overexpressing cells (CHOK1-hNKG2A/CD94), cyno NKG2A overexpressing cells (CHOK1-cynoNKG2A/CD94), and human NKG2C overexpressing cells (CHOK1-hNKG2C/CD94) were digested with TrypLE (purchased from Gibco). Cells were collected by centrifugation, then resuspended to 2E6/mL with FACS buffer (PBS+2% FBS). The cells were added to a 96-well cell plate at 100 μL per well, and the supernatant was discarded after centrifugation. The antibody was gradiently diluted with FACS buffer (initial concentration of 200 nM, 5-fold dilution, including point 0, a total of 10 concentration points), added to the cells at 100 μL/well, mixed, and incubated at 4° C. for 1 hour. The incubated cells were centrifuged at 300 g for 5 min and washed twice with FACS buffer. Secondary antibody, anti-human IgG fluorescent secondary antibody 488 (purchased from Thermofisher A-11013), was added, incubated at 4° C. for one hour, then the cells were washed twice with FACS buffer, resuspended in PBS and analyzed by FACS instrument.

human NKG2A/CD94 on cells (CHOK1-hNKG2A/CD94) (human), sequence (P26715 whole entry, chain 1 of 2): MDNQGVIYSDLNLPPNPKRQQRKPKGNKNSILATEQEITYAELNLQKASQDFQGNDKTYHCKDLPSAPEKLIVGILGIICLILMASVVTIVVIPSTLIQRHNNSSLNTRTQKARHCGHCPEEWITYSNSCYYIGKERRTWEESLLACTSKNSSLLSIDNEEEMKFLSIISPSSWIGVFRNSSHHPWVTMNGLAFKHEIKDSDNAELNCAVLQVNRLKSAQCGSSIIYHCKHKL
human NKG2A/CD94 on cells (CHOK1-hNKG2A/CD94) (human), sequence (Q13241 whole entry, chain 2 of 2, further chain): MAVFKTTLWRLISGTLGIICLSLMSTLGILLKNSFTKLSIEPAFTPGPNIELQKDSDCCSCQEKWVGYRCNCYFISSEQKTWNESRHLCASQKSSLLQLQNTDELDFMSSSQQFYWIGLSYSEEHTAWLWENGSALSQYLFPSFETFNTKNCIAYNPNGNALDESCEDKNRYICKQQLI
human NKG2A/CD94 on cells (CHOK1-hNKG2A/CD94), sequence (P26715 whole entry, chain 1 of 2): as the sequence (P26715 whole entry, chain 1 of 2) above
human NKG2A/CD94 on cells (CHOK1-hNKG2A/CD94), sequence (Q13241 whole entry, chain 2 of 2): as the sequence (Q13241 whole entry, chain 2 of 2, further chain) above
T1 sequence (P26717 whole entry, chain 1 of 2): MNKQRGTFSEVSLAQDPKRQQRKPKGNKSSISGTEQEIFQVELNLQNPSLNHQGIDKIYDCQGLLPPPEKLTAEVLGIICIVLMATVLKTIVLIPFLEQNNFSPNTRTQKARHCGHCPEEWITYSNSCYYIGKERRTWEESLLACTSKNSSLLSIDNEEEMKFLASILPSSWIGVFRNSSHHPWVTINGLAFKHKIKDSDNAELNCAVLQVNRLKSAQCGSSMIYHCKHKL
T1 sequence (Q13241 whole entry, chain 2 of 2): as the sequence (Q13241 whole entry, chain 2 of 2, further chain) above

Binder	IC50 (nM), killing of LCL721.221 target cells by NK92 cells [4] [nM]	also measured
B1	–	IC50 (nM), killing of LCL721.221 target cells by NK92 cells [1]: 1.11 nM; IC50 (nM), killing of LCL721.221 target cells by NK92 cells [2]: 0.57 nM; Maximum MFI [3]: 16100 MFI
B2	0.52	–
B3	0.28	binding result [5]: no binding (tested: initial concentration of 200 nM)
B4	0.33	–
B5	0.45	–
